Laboratory results taken from US20240209076A1 (KODIAK SCIENCES, published 2024).

B1: anti-IL-6 antibody, heavy chain I51F, G66D / light chain M32L, M50D, N52S, M88Q (antibody, IgG1, V domains shown)
VH: EVQLVESGGGLVQPGGSLRLSCAASGFTFSPFAMSWVRQAPGKGLEWVAKFSPGGSWTYYSDTVTDRFTFSLDTSKSTAYLQMNSLRAEDTAVYYCARQLWGYYALDIWGQGTLVTVSS
VL: DIQLTQSPSSLSASVGDRVTITCSASISVSYLYWYQQKPGKAPKLLIYDDSSLASGVPSRFSGSGSGTDFTLTISSLQPEDFATYYCQQWSGYPYTFGQGTKVEIK
notes: Full IgG1 (Expi293); VL = variant III
B2: Anti-IL-6 antibody, heavy chain S35H, G66D, Q99V / light chain WT (antibody, IgG1, V domains shown)
VH: EVQLVESGGGLVQPGGSLRLSCAASGFTFSPFAMHWVRQAPGKGLEWVAKISPGGSWTYYSDTVTDRFTFSLDTSKSTAYLQMNSLRAEDTAVYYCARVLWGYYALDIWGQGTLVTVSS
VL: DIQLTQSPSSLSASVGDRVTITCSASISVSYMYWYQQKPGKAPKLLIYDMSNLASGVPSRFSGSGSGTDFTLTISSLQPEDFATYYCMQWSGYPYTFGQGTKVEIK
notes: IgG1; variable domains only
B3: Anti-IL-6 antibody, heavy chain S35H, G66D, Q99Y / light chain M32L, M50D, N52S, M88Q (antibody, IgG1, V domains shown)
VH: EVQLVESGGGLVQPGGSLRLSCAASGFTFSPFAMHWVRQAPGKGLEWVAKISPGGSWTYYSDTVTDRFTFSLDTSKSTAYLQMNSLRAEDTAVYYCARYLWGYYALDIWGQGTLVTVSS
VL: DIQLTQSPSSLSASVGDRVTITCSASISVSYLYWYQQKPGKAPKLLIYDDSSLASGVPSRFSGSGSGTDFTLTISSLQPEDFATYYCQQWSGYPYTFGQGTKVEIK
notes: IgG1; variable domains only; VL is variant III
B4: Anti-IL-6 antibody, heavy chain WT / light chain M32L, M50D, N52S, M88Q (antibody, IgG1, V domains shown)
VH: EVQLVESGGGLVQPGGSLRLSCAASGFTFSPFAMSWVRQAPGKGLEWVAKISPGGSWTYYSDTVTGRFTFSLDTSKSTAYLQMNSLRAEDTAVYYCARQLWGYYALDIWGQGTLVTVSS
VL: DIQLTQSPSSLSASVGDRVTITCSASISVSYLYWYQQKPGKAPKLLIYDDSSLASGVPSRFSGSGSGTDFTLTISSLQPEDFATYYCQQWSGYPYTFGQGTKVEIK
notes: as for B3
B5: Anti-IL-6 antibody, heavy chain S35H, G66D, Q99S / light chain M32L, M50D, N52S, M88Q (antibody, IgG1, V domains shown)
VH: EVQLVESGGGLVQPGGSLRLSCAASGFTFSPFAMHWVRQAPGKGLEWVAKISPGGSWTYYSDTVTDRFTFSLDTSKSTAYLQMNSLRAEDTAVYYCARSLWGYYALDIWGQGTLVTVSS
VL: DIQLTQSPSSLSASVGDRVTITCSASISVSYLYWYQQKPGKAPKLLIYDDSSLASGVPSRFSGSGSGTDFTLTISSLQPEDFATYYCQQWSGYPYTFGQGTKVEIK
notes: as for B3
B6: Anti-IL-6 antibody, heavy chain S35H, G66D, Q99T / light chain M32L, M50D, N52S, M88Q (antibody, IgG1, V domains shown)
VH: EVQLVESGGGLVQPGGSLRLSCAASGFTFSPFAMHWVRQAPGKGLEWVAKISPGGSWTYYSDTVTDRFTFSLDTSKSTAYLQMNSLRAEDTAVYYCARTLWGYYALDIWGQGTLVTVSS
VL: DIQLTQSPSSLSASVGDRVTITCSASISVSYLYWYQQKPGKAPKLLIYDDSSLASGVPSRFSGSGSGTDFTLTISSLQPEDFATYYCQQWSGYPYTFGQGTKVEIK
notes: as for B3
B7: Anti-IL-6 antibody, heavy chain S35H, G66D, Q99Y / light chain WT (antibody, IgG1, V domains shown)
VH: EVQLVESGGGLVQPGGSLRLSCAASGFTFSPFAMHWVRQAPGKGLEWVAKISPGGSWTYYSDTVTDRFTFSLDTSKSTAYLQMNSLRAEDTAVYYCARYLWGYYALDIWGQGTLVTVSS
VL: DIQLTQSPSSLSASVGDRVTITCSASISVSYMYWYQQKPGKAPKLLIYDMSNLASGVPSRFSGSGSGTDFTLTISSLQPEDFATYYCMQWSGYPYTFGQGTKVEIK
notes: IgG1; variable domains only
B8: Anti-IL-6 antibody, heavy chain S35H, G66D, Q99S / light chain WT (antibody, IgG1, V domains shown)
VH: EVQLVESGGGLVQPGGSLRLSCAASGFTFSPFAMHWVRQAPGKGLEWVAKISPGGSWTYYSDTVTDRFTFSLDTSKSTAYLQMNSLRAEDTAVYYCARSLWGYYALDIWGQGTLVTVSS
VL: DIQLTQSPSSLSASVGDRVTITCSASISVSYMYWYQQKPGKAPKLLIYDMSNLASGVPSRFSGSGSGTDFTLTISSLQPEDFATYYCMQWSGYPYTFGQGTKVEIK
notes: IgG1; variable domains only
B9: Anti-IL-6 antibody, heavy chain S35H, G66D, Q99V / light chain M32L, M50D, N52S, M88Q (antibody, IgG1, V domains shown)
VH: EVQLVESGGGLVQPGGSLRLSCAASGFTFSPFAMHWVRQAPGKGLEWVAKISPGGSWTYYSDTVTDRFTFSLDTSKSTAYLQMNSLRAEDTAVYYCARVLWGYYALDIWGQGTLVTVSS
VL: DIQLTQSPSSLSASVGDRVTITCSASISVSYLYWYQQKPGKAPKLLIYDDSSLASGVPSRFSGSGSGTDFTLTISSLQPEDFATYYCQQWSGYPYTFGQGTKVEIK
notes: as for B3
B10: Anti-IL-6 antibody, heavy chain S35H, G66D, Q99T / light chain WT (antibody, IgG1, V domains shown)
VH: EVQLVESGGGLVQPGGSLRLSCAASGFTFSPFAMHWVRQAPGKGLEWVAKISPGGSWTYYSDTVTDRFTFSLDTSKSTAYLQMNSLRAEDTAVYYCARTLWGYYALDIWGQGTLVTVSS
VL: DIQLTQSPSSLSASVGDRVTITCSASISVSYMYWYQQKPGKAPKLLIYDMSNLASGVPSRFSGSGSGTDFTLTISSLQPEDFATYYCMQWSGYPYTFGQGTKVEIK
notes: IgG1; variable domains only

What follows are binders tested against T1, human IL-6 (human, UniProt P05231 30-212) (assay: SPR Biacore, supernatant Ab on Protein A chip, 37 C).
T1 construct: IL-6 flowed over captured antibodies
Procedure: (§1) Antibodies were captured on a Protein A chip (GE) by injecting 1:20 cell supernatant dilutions at 10 μL/min for 60 seconds. […] The sensor chip was regenerated by a 60 seconds injection of 10 mM Glycine pH 1.7 at the flow rate of 50 μL/min. […] For this setup, 1 μg/mL of purified antibody was injected over a Protein A chip at 10 μL/min for 25 seconds. […] The sensor chip was regenerated by a 60 seconds injection of 10 mM Glycine pH 1.7 at flow rate of 50 μL/min. Data analysis for supernatant and purified samples were performed using BIAevaluation software (GE). All sensorgrams were double reference subtracted and fit using a 1:1 Langmuir binding model.
T1 sequence (P05231 30-212 limits assumed): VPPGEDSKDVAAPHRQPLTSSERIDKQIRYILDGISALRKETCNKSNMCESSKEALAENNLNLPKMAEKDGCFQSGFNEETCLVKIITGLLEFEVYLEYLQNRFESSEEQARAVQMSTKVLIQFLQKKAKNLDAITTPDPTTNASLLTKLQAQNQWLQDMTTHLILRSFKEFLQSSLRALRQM
B1 was tested, and the Kd was 4.45 nM, the koff was 0.00611 s⁻¹ and the kon was 1.37e+06 M⁻¹ s⁻¹.

Each binder was assayed against human IL-6 (human, UniProt P05231 30-212) (assay: SPR Biacore, supernatant, Protein A capture, 37 C).
Procedure: Those four positions were selected based on their tolerance for mutations as observed in bacterial and mammalian screens. […] These cultures were centrifuged and supernatants containing secreted antibodies were harvested and diluted in HBS-EP+ running buffer (1:20 ratio).
Target sequence in this assay (P05231 30-212 limits assumed): as above
as §1
B2 showed a Kd of 4.8 nM, a koff of 0.00431 s⁻¹ and a kon of 898000 M⁻¹ s⁻¹.
B3 gave a Kd of 2.51 nM, a koff of 0.00547 s⁻¹ and a kon of 2.17e+06 M⁻¹ s⁻¹.
B4 showed a Kd of 0.686 nM, a koff of 0.000631 s⁻¹ and a kon of 920000 M⁻¹ s⁻¹.
In the case of B5, the Kd is reported as 7.66 nM, the koff is reported as 0.00154 s⁻¹ and the kon is reported as 201000 M⁻¹ s⁻¹.
Binder B6 has a Kd of 6.51 nM, a koff of 0.049 s⁻¹ and a kon of 7.52e+06 M⁻¹ s⁻¹.
B7 gave a Kd of 0.825 nM, a koff of 0.00215 s⁻¹ and a kon of 2.6e+06 M⁻¹ s⁻¹.
Work on B8 yielded a Kd of 6.48 nM, a koff of 0.0257 s⁻¹ and a kon of 3.96e+06 M⁻¹ s⁻¹.
B9 showed a Kd of 1.76 nM, a koff of 0.0014 s⁻¹ and a kon of 794000 M⁻¹ s⁻¹.
B10 showed a Kd of 1.31 nM, a koff of 0.00222 s⁻¹ and a kon of 1.69e+06 M⁻¹ s⁻¹.
